Assays:
GST-NDR1 [1] = test: GST-NDR1 kinase assay (peptide kinase assay); assay type: biochemical, human; set-up: Specific activity of GST-NDR1 variants, CTRL / Specific activity of GST-NDR1 variants, −S100B / Specific activity of GST-NDR1 variants, +S100B: unit not given here; settings: for Specific activity of GST-NDR1 variants, −S100B: autophosphorylated 2 h in the absence of CaCl2 and S100B; for Specific activity of GST-NDR1 variants, +S100B: autophosphorylated 2 h in the presence of 1 mM CaCl2 and 10 mM bovine S100B; for Specific activity of GST-NDR1 variants, CTRL: left without further treatment
Method: 1 microgram of purified recombinant GST-NDR1 wild type and mutants (without further treatment or autophosphorylated for 2 h in the presence or absence of 1 mM CaCl2 and […] (Sigma)) were assayed in 20 microliter of reaction mixture containing 20 mM Tris-HCl pH 7.5, 10 mM MgCl2, 1 mM DTT, 100 microM [gamma-^32P]ATP (˜0.5 microCi/microliter), and 1 mM NDR1 substrate peptide ([…]; SEQ ID NO:22). After 30 mins incubation at 30° C., reactions were stopped with 50 mM EDTA, and 10 microliters of reaction mixture were spotted onto 2 cm^2 squares of P81 phosphocellulose paper (Whatman). These were subsequently washed for 4×5 min and 3×20 min in 1% phosphoric acid and once in acetone before counting in a liquid scintillation counter. One unit of NDR1 activity was defined as the amount which catalyses the phosphorylation of 1 nmol peptide substrate in 1 min.
Specific activity of GST-NDR1 mutants was also measured by a peptide kinase assay as described above. For this purpose, 1 microgram of purified GST-NDR1 wild type and alanine mutants were left without further treatment or autophosphorylated for 2 h in the presence or absence of 1 mM CaCl2 and […].

HA-NDR1 = HA-NDR1 kinase assay on 12CA5 immunoprecipitates from transfected, treated COS-1 cells; assay type: cell-based, human; set-up: kinase activity of HA-NDR1 variants, −OA: unit not given here; settings: COS-1 cells; for kinase activity of HA-NDR1 variants, +OA: 1 microM okadaic acid 1 h; for kinase activity of HA-NDR1 variants, −OA: solvent alone 1 h
Method: In some experiments, the cells were treated for 60 min with 1 microM okadaic acid in 0.1% N,N-dimethylformamide (DMF) (Alexis Corp.), 50 microM BAPTA-AM (1,2-bis (o-aminophenoxy) ethane-N,N,N′,N′-tetraacetic acid tetra (acetoxy-methyl)ester) in 0.1% diimethylsulfoxide (DMSO; Sigma), or 20 microM thapsigargin in 0.1% DMSO (Alomone) 24 hours after transfection.
Transfected and treated COS-1 cells were washed once with ice-cold PBS, and harvested by rubber policeman in 1 ml ice-cold PBS containing 1 mM Na3VO4 and 20 mM beta-glycerophosphate before lysis in 500 microliters of IP buffer (20 mM Tris-HCl pH 8.0, 150 mM NaCl, 1% Nonidet P-40, 10% glycerol, 1 mM Na3VO4, 20 mM beta-glycerolphosphate, 1 microM microcystin-LR, 50 mM NaF, 0.5 mM PMSF, 4 microM leupeptin, 1 mM benzamidine, and 1 tablet/10 ml IP of Complete protease inhibitors (Roche)). Lysates were centrifuged at 20 000 g for 20 min and triplicate aliquots (200 microg) of supernatant were precleared with protein A-Sepharose (Amersham Pharmacia Biotech) for 60 min and mixed subsequently for 3 h at 4° C. with 12CA5 antibody prebound to protein A-Sepharose (˜1 microg antibody bound to 2 microl beads). The beads were then washed twice with IP buffer, once for 10 min with IP buffer containing 1 M NaCl, once again for 10 min with IP buffer, and finally twice with 20 mM Tris-HCl pH 7.5 containing 4 microM leupeptin and 1 mM benzamidine. Thereafter, beads were resuspended in 30 microliters buffer containing 20 mM Tris-HCl pH 7.5, 10 mM MgCl2, 1 mM DTT, 100 microM [gamma-^32P]ATP (˜0.1 microCi/microliter), 1 microM cAMP-dependent protein kinase inhibitor peptide PKI (Bachem), 4 microM leupeptin, 1 mM benzamidine, 1 microM microcystin-LR, and 1 mM NDR1 substrate peptide ([…]). After 60 min incubation at 30° C., 15 microliters of supernatant were removed, and phosphate incorporation into the substrate peptide determined as described for GST-NDR1 above.
COS-1 cells expressing either wild type HA-NDR1 or the indicated mutants were treated for 1 h with 1 microM okadaic acid or with solvent alone. HA-tagged NDR kinase variants were then immunoprecipitated (out of 100 microgram of detergent extracts) with 12CA5 monoclonal antibody and assayed for kinase activity by a peptide kinase assay as described above.
Mock-transfected or HA-NDR1-expressing COS-1 cells were treated for 1 h with […], 50 microM BAPTA-AM, and […] or with solvent (0.1% DMF or 0.1% DMSO) alone. 12CA5 immunoprecipitates (out of 100 microgram protein extract) were then assayed using the peptide kinase assay for NDR1 kinase activity.
To test whether hMOB1 plays a role in NDR activation, myc-hMOB1 or the empty vector was cotransfected with HA-NDR1 in COS1 cells and treated with OA. 12CA5 immunoprecipitates were then assayed using the peptide kinase assay for HA-NDR kinase activity. […] GST-MOB and GST respectively was added to immunoprecipitated HA-NDR and kinase reaction were performed. The reactions were resolved on a 10% SDS PAGE and the radioactivity visualised by using a phosphoimager.

GST-NDR1 [2] = test: GST-NDR1 in vitro autophosphorylation, incorporated 32P by Cerenkov counting; assay type: biochemical, human; settings: for amount of incorporated 32P (autophosphorylation), −S100B / amount of incorporated 32P (autophosphorylation), +S100B: GST-NDR1 variant; for amount of incorporated 32P (autophosphorylation), −S100B: 1 microgram, autophosphorylated 2 hours without further additions, pmol ATP/pmol GST-NDR1; for amount of incorporated 32P (autophosphorylation), +S100B: 2 hours in the presence of 1 mM CaCl2 and 10 microM bovine S100B, in pmol ATP/pmol GST-NDR1; for autophosphorylation rate of GST-NDR1 mutant (in words): compared with wild type
Method: BL21-DE3-pRep4 E. coli strain was transformed with the pGEX-2T_NDR1 wild type or mutant plasmids. BL21-DE3 is a protease-deficient E. coli strain and pRep4 is a Laclq repressor-bearing plasmid both available commercially. Optionally, if desired, an E. coli strain comprising GroESL can be used, which expresses a chaperone protein that stabilizes the kinase. Mid-logarithmic phase cells were induced with 0.5 mM isopropyl beta-D-thiogalactopyranoside (IPTG) for 4 hours at 30° C. Bacteria were lysed using a French press in the presence of 1 mg/ml lysosyme, and the fusion proteins were purified on glutathione-agarose (Amersham Pharmacia Biotech) as described by the manufacturers. Recombinant proteins were assayed for kinase activity as described below and autophosphorylation was determined after SDS-PAGE separation either by Cerenkov counting or by exposure to a PhosphorImager screen followed by analysis with ImageQuant software (Molecular Dynamics).
In brief, 1 microgram of purified GST-NDR1 (in solution ˜0.5 microM) wild type, kinase dead (K118A), and alanine mutants of phosphorylation residues Thr74, Ser281, and Thr444 were autophosphorylated for 2 hours in vitro without further additions or in the presence of 1 mM CaCl2 and 10 microM bovine S100B. Proteins were visualized on SDS gels using Coomassie Blue R-350 stained SDS-PAGE gel, and [gamma-^32P]ATP-labelled proteins were visualized by autoradiography of the gels developed on a Phosphorimager screen. The amount of incorporated ^32P was quantified by Cerenkov counting.

Substance | Specific activity of GST-NDR1 variants, −S100B (GST-NDR1 [1]) | Specific activity of GST-NDR1 variants, +S100B (GST-NDR1 [1]) | Specific activity of GST-NDR1 variants, CTRL (GST-NDR1 [1]) | kinase activity of HA-NDR1 variants, +OA (HA-NDR1) | kinase activity of HA-NDR1 variants, −OA (HA-NDR1) | amount of incorporated 32P (autophosphorylation), −S100B (GST-NDR1 [2]) | amount of incorporated 32P (autophosphorylation), +S100B (GST-NDR1 [2]) | autophosphorylation rate of GST-NDR1 mutant (in words) (GST-NDR1 [2]) | kinase activity of GST-NDR1 mutant (in words) (GST-NDR1 [1]; compared with wild type)
T444A: NDR1 alanine mutant of phosphorylation residue Thr444; GST fusion or HA-tagged | 1.92 | 3.974 | 0.564 | 0.6019 | 0.1067 | 0.1232 | 0.2412 | significant decrease | –
K118A: NDR1 kinase dead mutant, Lys 118 to alanine; GST fusion or HA-tagged | 0.272 | 0.222 | 0.158 | 0.0204 | 0.0107 | 0.0076 | 0.0064 | did not show detectable autophosphorylation | –
T74A: NDR1 alanine mutant of phosphorylation residue Thr74; GST fusion or HA-tagged | 3.786 | 7.818 | 1.006 | 1.053 | 0.124 | 0.158 | 0.2072 | negligible reduction | negligible reduction

Source: patent US8008452B2, “Phosphorylated Ndr kinase” (Novartis Forschungesstiftung, Zweigniederlassung Friedrich …, priority 2002, dated 2011)
